Assay results published in US20220017632A1 (HANX BIOPHARMACEUTICS, published 2022).
Blank lines part the entries; values can stand above or below the binder they belong to.

What was measured:
[1] = target: T1, human fusion protein hOX40-HIS (human, UniProt P43489 29-216, limits assumed); test: ELISA, coated hOX40-HIS; antibody 400 ng/ml; well 1
T1 construct: it looks like the extracellular region; also called hOX40-HIS antigen; human OX40 antigen
T1 sequence: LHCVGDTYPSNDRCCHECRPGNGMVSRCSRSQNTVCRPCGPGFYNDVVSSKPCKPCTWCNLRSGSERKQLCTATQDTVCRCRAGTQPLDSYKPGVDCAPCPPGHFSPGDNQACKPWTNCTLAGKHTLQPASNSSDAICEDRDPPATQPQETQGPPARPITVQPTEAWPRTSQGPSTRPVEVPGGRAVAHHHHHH
Description: (§1) For the hybridoma antibodies prepared in Example 1, the specific binding of different antibodies to hOX40 was detected by the following steps:
(§2) 3) addition of the primary antibody: preparing the four antibodies to a concentration of 2 μg/ml, and diluting 1:5 from the 2 μg/ml as the starting concentration to 7 gradient concentrations (that is, the concentrations of 2μg/ml, 400 ng/ml, 80 ng/ml, 16 ng/ml, 3.2 ng/ml, 0.64 ng/ml, 0.128 ng/ml, respectively). The prepared primary antibodies were added individually, and incubated at 30° C. for 1 hour; PBS was used as the blank control group;

[2] = target: T1, human fusion protein hOX40-HIS; test: ELISA, coated hOX40-HIS; antibody 0.64 ng/ml; well 1
Description: as §1, §2

[3] = target: T1, human fusion protein hOX40-HIS; test: ELISA, coated hOX40-HIS; antibody 0.128 ng/ml; well 1
Description: as §1, §2

[4] = target: T1, human fusion protein hOX40-HIS; test: ELISA, coated hOX40-HIS; antibody 2000 ng/ml; well 1
Description: as §1, §2

[5] = target: T1, human fusion protein hOX40-HIS; test: ELISA, coated hOX40-HIS; antibody 0.64 ng/ml; well 2
Description: as §1, §2

[6] = target: T1, human fusion protein hOX40-HIS; test: ELISA, coated hOX40-HIS 0.6 ug/ml
Description: as §2
The ELISA test results are shown in Table 1, in which, the EC₅₀ value represents the half-maximal effect concentration, that is, the concentration that can cause 50% of the maximum effect.

[7] = target: T1, human fusion protein hOX40-HIS; test: ELISA, coated hOX40-HIS; antibody 0.128 ng/ml; well 2
Description: as §1, §2

[8] = target: T1, human fusion protein hOX40-HIS; test: ELISA, coated hOX40-HIS; antibody 16 ng/ml; well 2
Description: as §1, §2

[9] = target: T1, human fusion protein hOX40-HIS; test: ELISA, coated hOX40-HIS; antibody 2000 ng/ml; well 2
Description: as §1, §2

[10] = target: T1, human fusion protein hOX40-HIS; test: ELISA, coated hOX40-HIS; antibody 16 ng/ml; well 1
Description: as §1, §2

[11] = target: T1, human fusion protein hOX40-HIS; test: ELISA, coated hOX40-HIS; antibody 80 ng/ml; well 2
Description: as §1, §2

[12] = target: T1, human fusion protein hOX40-HIS; test: ELISA, coated hOX40-HIS; antibody 3.2 ng/ml; well 2
Description: as §1, §2

[13] = target: T1, human fusion protein hOX40-HIS; test: ELISA, coated hOX40-HIS; antibody 400 ng/ml; well 2
Description: as §1, §2

[14] = target: T1, human fusion protein hOX40-HIS; test: ELISA, coated hOX40-HIS; antibody 3.2 ng/ml; well 1
Description: as §1, §2

[15] = target: T1, human fusion protein hOX40-HIS; test: ELISA, coated hOX40-HIS; antibody 80 ng/ml; well 1
Description: as §1, §2

[16] = target: T1, human fusion protein hOX40-HIS; test: SPR, ProteOn XPR, hOX40-HIS immobilized on GLM chip, antibody as analyte
Description: The ProteOn XPR molecular interaction instrument may be used to detect the kinetics and affinity constants of the interaction between different drugs and a variety of different target proteins. 250 nM hOX40-HIS antigen ([…] hOX40 antigen) was immobilized on the surface of the GLM chip, and after equilibrating in PBST, was allowed to bind to the antibody 9C12 diluted twice in PBST to the concentration of 50, 25, 12.5, 6.25, 3.125, 0 nM, respectively, and then dissociated in PBST.

monkey OX40 antigen = target: T2, monkey OX40 antigen (monkey); test: ELISA, coated monkey OX40-HIS 0.25 ug/ml
T2 construct: also called Monkey OX40-HIS antigen
Description: (§3) Human OX40 antigen, monkey OX40 antigen and murine OX40 antigen were used for coating respectively to detect whether OX40 antibody cross-reacts with OX40 protein of different species, through the following steps:
(§4) 3) addition of the primary antibody: preparing antibody 9C12 to a concentration of 2 μg/ml, and diluting 1:5 from the 2 μg/ml as the starting concentration to […] 7 gradient concentrations (that is, the concentrations of 2 μg/ml, 400 ng/ml, 80 ng/ml, 16 ng/ml, 3.2 ng/ml, 0.64 ng/ml, 0.128 ng/ml, respectively). PBS was used as the blank control group. The prepared primary antibodies were added individually, and incubated at 30° C. for 1 hour;

[17] = target: T3, hOX40 protein on the cell membrane surface (293T-OX40 stably transfected cells) (human, UniProt P43489 29-277); test: flow cytometry on 293T-OX40 cells
T3 construct: whole, on cells; also called hOX40 on the surface of the cell membrane; 293T cells expressing hOX40
T3 sequence (looked up): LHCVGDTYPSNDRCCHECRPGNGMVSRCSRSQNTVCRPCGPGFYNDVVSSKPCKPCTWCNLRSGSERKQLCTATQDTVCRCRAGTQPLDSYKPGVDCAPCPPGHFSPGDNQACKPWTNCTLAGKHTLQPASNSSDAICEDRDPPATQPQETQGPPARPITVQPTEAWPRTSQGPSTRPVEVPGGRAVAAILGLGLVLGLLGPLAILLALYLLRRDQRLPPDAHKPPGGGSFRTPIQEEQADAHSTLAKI
Description: In this experiment, 293T-OX40 stably transfected cell lines were used as the experimental cells, and the FACS method was used to detect the binding of 9C12 to the hOX40 protein on the cell membrane surface. The specific procedure is as follows:
293T cells expressing hOX40 were digested, and prepared to a final concentration of 10⁶ cells/ml. 100 μl of cell suspension from each group was added into a 1.5 ml EP tube. Various concentrations of 9C12 antibody (10000 ng/ml, 4000 ng/ml, 2000 ng/ml, 1000 ng/ml, 500 ng/ml, 200 ng/ml, 20 ng/ml, 2 ng/ml) were added, and incubated on ice for 1 hour. After 1 hour, the tube was washed with HBSS once. Each group was added with prepared APC goat anti-human IgG secondary antibody, incubated on ice for 20 minutes in the dark, washed once with HBSS, and finally suspended with 200 μl of HBSS, and the cells were tested.

[18] = target: T1, human fusion protein hOX40-HIS; test: ELISA, coated human OX40-HIS 0.25 ug/ml
Description: as §3, §4

murine OX40 antigen = target: T4, murine OX40 antigen (murine, UniProt P47741 20-211, limits assumed); test: ELISA, coated murine OX40 antigen 0.25 ug/ml
T4 sequence (looked up): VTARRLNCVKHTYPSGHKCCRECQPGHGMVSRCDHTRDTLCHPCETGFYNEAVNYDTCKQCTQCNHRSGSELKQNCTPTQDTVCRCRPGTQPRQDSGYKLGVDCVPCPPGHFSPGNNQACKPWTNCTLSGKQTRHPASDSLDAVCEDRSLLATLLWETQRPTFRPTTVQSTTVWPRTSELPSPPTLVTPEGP
Description: as §3, §4

- absorbance at 450 nm [1]: 1.11
- absorbance at 450 nm [2]: 0.051
- absorbance at 450 nm [3]: 0.053
- absorbance at 450 nm [4]: 2.95
- absorbance at 450 nm [5]: 0.053
- EC50 [6]: 10.8 nM
- absorbance at 450 nm [7]: 0.052
- absorbance at 450 nm [8]: 0.123
- absorbance at 450 nm [9]: 3.08
- absorbance at 450 nm [10]: 0.104
- absorbance at 450 nm [11]: 0.287
- absorbance at 450 nm [12]: 0.066
- absorbance at 450 nm [13]: 1.12
- absorbance at 450 nm [14]: 0.061
- absorbance at 450 nm [15]: 0.316
B1: antibody 1D9 (antibody, V domains shown)
VH: EVQLQQSGPELVKPGALVKISCKASGYTFTNYDINWVKQRPGQGLEWIGWIYPEDGSTKYNEKFKGKATLTADKSSSTAYMQLSSLTSENSAVYFCARDTRGYFDYWGQGTTLTVSS
VL: DIVMTQTTAIMSASLGEKVTMSCRASSSVNYIYWYQQKSDASPKLWIYYTSNLAPGVPARFSGSGSGNSYSLTISSMEGEDAATYYCQQFTSSPWTFGGGTKLEFKR
notes: Purified mouse hybridoma antibody; also called 1D9 antibody; 1D9 Ab

- absorbance at 450 nm [1]: 1.64
- absorbance at 450 nm [2]: 0.059
- absorbance at 450 nm [3]: 0.05
- Kd [16]: 20.8 nM
- koff [16]: 0.000567 s⁻¹
- kon [16]: 27300 M⁻¹ s⁻¹
- absorbance at 450 nm [4]: 1.93
- absorbance at 450 nm [5]: 0.058
- EC50 [6]: 0.727 nM
- absorbance at 450 nm [7]: 0.056
- absorbance at 450 nm [8]: 0.288
- absorbance at 450 nm [9]: 1.98
- absorbance at 450 nm [10]: 0.272
- absorbance at 450 nm [11]: 0.87
- absorbance at 450 nm [12]: 0.094
- absorbance at 450 nm [13]: 1.66
- absorbance at 450 nm [14]: 0.096
- absorbance at 450 nm [15]: 0.894
B2: antibody 8A7 (antibody, V domains shown)
VH: QVQLQESGPSHVKPSQTLSLTCSVTGDSITSGYWNWIRKFPGNKLEYLGYISFSGNTYYNPSLKSRISIIRDTSKNQYYLQLNSVTTEDTATYYCARYPYSYSNWDYAMDYWGQGTSVTVSS
VL: DIVMTQSPSSLVVSVGEKVTMSCKSSQFLLYSSSQKNYLAWYQQKPGQSPQLLIYWASTRESGVPDRFTGSGSGTDFTLTISSVKAEDLAVYYCHQYYSYPLTFGAGTKLELK
notes: Purified mouse hybridoma antibody; also called 8A7 antibody; 8A7 Ab

- absorbance at 450 nm [1]: 2.59
- EC50 (monkey OX40 antigen): 0.01 nM
- absorbance at 450 nm [2]: 0.464
- absorbance at 450 nm [3]: 0.147
- Kd [16]: 0.151 nM
- koff [16]: 6.73e-05 s⁻¹
- kon [16]: 445000 M⁻¹ s⁻¹
- absorbance at 450 nm [4]: 2.72
- absorbance at 450 nm [5]: 0.464
- EC50 [17]: 2.84 nM
- EC50 [6]: 0.017 nM
- EC50 [18]: 0.012 nM
- absorbance at 450 nm [7]: 0.138
- absorbance at 450 nm [8]: 2.25
- absorbance at 450 nm [9]: 2.68
- binding result (murine OX40 antigen): no binding (tested: 2000 ng/ml)
- absorbance at 450 nm [10]: 2.4
- absorbance at 450 nm [11]: 2.51
- absorbance at 450 nm [12]: 1.51
- absorbance at 450 nm [13]: 2.52
- absorbance at 450 nm [14]: 1.58
- absorbance at 450 nm [15]: 2.59
B3: antibody 9C12 (antibody, V domains shown)
VH: QVQLQQSGGGLVKPGGSLKLSCAASGFTFSDYYMYWVRQTPEKRLEWVATISDGGSNTYYPDSVKGRFTISRDNAKNNLYLQMSSLKSEDTATYYCARRGTGTGFGYWGQGTLVTVSA
VL: DIVLTQTTASLSVSVGETVTITCRASENIYSTLAWYQQKQGKSPQLLVYAATNLVAGVPSRFSGSGSGTQYSLKINSLQSEDFGSYYCQHFWGIPWTFGGGTKLEIK
notes: Purified mouse hybridoma antibody; also called 9C12 antibody; 9C12 Ab
